Experiments:
[1] = target: C81R mutant PCNA protein from S. cerevisiae (S. cerevisiae) (UniProt P15873); experiment: crystal structure
[2] = target: the molecule itself; experiment: native gel or EMSA
[3] = target: the molecule itself; experiment: crystal structure
[4] = target: MutSα (Msh2-Msh6) from S. cerevisiae (S. cerevisiae, UniProt P25847 1-964; Q03834 1-1242); experiment: ELISA
Sequence of MutSα (Msh2-Msh6) from S. cerevisiae (P25847 whole entry, chain 1 of 2): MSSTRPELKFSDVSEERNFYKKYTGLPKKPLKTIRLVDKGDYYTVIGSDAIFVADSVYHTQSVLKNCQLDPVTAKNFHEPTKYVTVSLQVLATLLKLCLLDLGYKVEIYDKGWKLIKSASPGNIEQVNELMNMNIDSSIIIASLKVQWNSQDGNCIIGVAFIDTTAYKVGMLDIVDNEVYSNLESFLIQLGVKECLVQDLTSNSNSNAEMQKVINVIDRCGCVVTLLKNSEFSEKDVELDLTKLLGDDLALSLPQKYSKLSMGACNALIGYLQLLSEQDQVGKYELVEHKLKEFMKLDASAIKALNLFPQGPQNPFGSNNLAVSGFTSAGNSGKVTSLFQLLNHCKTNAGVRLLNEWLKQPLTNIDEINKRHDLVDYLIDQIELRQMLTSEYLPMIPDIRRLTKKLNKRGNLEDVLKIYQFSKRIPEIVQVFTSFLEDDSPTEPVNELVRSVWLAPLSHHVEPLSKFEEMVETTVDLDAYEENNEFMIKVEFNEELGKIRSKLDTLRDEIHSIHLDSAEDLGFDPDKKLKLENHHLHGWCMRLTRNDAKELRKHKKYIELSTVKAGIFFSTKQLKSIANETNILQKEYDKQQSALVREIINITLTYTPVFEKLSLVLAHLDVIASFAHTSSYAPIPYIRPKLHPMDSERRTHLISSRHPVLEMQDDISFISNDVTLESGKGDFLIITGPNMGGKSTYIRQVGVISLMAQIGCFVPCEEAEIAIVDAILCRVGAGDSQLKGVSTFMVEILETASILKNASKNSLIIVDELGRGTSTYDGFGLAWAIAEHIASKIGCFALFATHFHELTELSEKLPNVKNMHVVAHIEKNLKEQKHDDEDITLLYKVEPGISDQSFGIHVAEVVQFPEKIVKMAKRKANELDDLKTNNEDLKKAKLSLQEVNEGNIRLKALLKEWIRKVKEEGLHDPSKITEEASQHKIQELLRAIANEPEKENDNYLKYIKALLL
Sequence of MutSα (Msh2-Msh6) from S. cerevisiae (Q03834 whole entry, chain 2 of 2): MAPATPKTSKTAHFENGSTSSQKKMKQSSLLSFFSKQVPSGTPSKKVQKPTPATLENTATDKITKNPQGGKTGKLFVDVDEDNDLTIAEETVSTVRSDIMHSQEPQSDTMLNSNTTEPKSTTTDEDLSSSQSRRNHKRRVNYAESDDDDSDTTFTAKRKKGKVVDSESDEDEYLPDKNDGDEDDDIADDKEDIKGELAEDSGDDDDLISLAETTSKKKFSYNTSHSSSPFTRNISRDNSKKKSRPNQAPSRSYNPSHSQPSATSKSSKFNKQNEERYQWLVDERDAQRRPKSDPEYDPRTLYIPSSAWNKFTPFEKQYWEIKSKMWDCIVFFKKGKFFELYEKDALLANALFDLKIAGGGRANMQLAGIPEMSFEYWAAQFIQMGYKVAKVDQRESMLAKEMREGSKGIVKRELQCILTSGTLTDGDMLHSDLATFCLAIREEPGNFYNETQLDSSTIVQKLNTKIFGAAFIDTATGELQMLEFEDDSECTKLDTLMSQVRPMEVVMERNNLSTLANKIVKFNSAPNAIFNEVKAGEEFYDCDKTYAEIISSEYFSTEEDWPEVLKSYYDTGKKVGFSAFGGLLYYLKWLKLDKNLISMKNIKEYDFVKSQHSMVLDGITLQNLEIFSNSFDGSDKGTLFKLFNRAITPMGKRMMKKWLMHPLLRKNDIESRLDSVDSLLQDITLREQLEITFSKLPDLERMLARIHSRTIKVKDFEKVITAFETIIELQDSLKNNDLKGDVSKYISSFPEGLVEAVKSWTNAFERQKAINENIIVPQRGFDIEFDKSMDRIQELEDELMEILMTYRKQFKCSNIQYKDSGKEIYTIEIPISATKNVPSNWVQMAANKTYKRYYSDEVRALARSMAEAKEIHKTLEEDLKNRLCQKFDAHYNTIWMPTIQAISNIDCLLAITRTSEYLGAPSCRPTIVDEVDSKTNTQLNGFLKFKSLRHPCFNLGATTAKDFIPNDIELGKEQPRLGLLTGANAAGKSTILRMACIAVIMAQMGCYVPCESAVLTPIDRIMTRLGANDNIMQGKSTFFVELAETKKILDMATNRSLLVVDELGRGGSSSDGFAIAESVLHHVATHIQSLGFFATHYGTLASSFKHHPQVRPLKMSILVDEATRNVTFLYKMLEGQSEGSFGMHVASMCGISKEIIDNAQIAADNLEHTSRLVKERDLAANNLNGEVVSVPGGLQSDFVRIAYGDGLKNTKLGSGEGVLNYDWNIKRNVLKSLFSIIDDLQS

Molecule: C81R mutant PCNA protein from S. cerevisiae (from UniProt P15873 1-258) (natural protein)
- stoichiometry N [1]: 3

B1: wild-type PCNA protein (proliferating cell nuclear antigen) from S. cerevisiae (natural protein)
chain: MLEAKFEEASLFKRIIDGFKDCVQLVNFQCKEDGIIAQAVDDSRVLLVSLEIGVEAFQEYRCDHPVTLGMDLTSLSKILRCGNNTDTLTLIADNTPDSIILLFEDTKKDRIAEYSLKLMDIDADFLKIEELQYDSTLSLPSSEFSKIVRDLSQLSDSINIMITKETIKFVADGDIGSGSVIIKPFVDMEHPETSIKLEMDQPVDLTFGAKYLLDIIKGSSLSDRVGIRLSSEAPALFQFDLKSGFLQFFLAPKFNDEE
- stoichiometry N [2]: 3

B2: C22Y mutant PCNA protein from S. cerevisiae (natural protein)
chain: MLEAKFEEASLFKRIIDGFKDYVQLVNFQCKEDGIIAQAVDDSRVLLVSLEIGVEAFQEYRCDHPVTLGMDLTSLSKILRCGNNTDTLTLIADNTPDSIILLFEDTKKDRIAEYSLKLMDIDADFLKIEELQYDSTLSLPSSEFSKIVRDLSQLSDSINIMITKETIKFVADGDIGSGSVIIKPFVDMEHPETSIKLEMDQPVDLTFGAKYLLDIIKGSSLSDRVGIRLSSEAPALFQFDLKSGFLQFFLAPKFNDEE
- stoichiometry N [3]: 3
- binding result [4]: binds

B3: C81R mutant PCNA protein from S. cerevisiae (natural protein)
chain: MLEAKFEEASLFKRIIDGFKDCVQLVNFQCKEDGIIAQAVDDSRVLLVSLEIGVEAFQEYRCDHPVTLGMDLTSLSKILRRGNNTDTLTLIADNTPDSIILLFEDTKKDRIAEYSLKLMDIDADFLKIEELQYDSTLSLPSSEFSKIVRDLSQLSDSINIMITKETIKFVADGDIGSGSVIIKPFVDMEHPETSIKLEMDQPVDLTFGAKYLLDIIKGSSLSDRVGIRLSSEAPALFQFDLKSGFLQFFLAPKFNDEE
- binding result [4]: binds

— article PMC3845532 (Biochemistry, 2013)
